# In patent US20210079060A1 (ALETA BIOTHERAPEUTICS, published 2021):
# Residue numbers refer to the chain shown, from its start. Where “and” joins values, the source holds several entries; their conditions need not be identical. Identical values can stand only once.
# T1: Clec12A (human, UniProt Q5QGZ9 1-265)
# T1 construct: whole, on cells; also called CLL-1; MICL
# T1 sequence (looked up): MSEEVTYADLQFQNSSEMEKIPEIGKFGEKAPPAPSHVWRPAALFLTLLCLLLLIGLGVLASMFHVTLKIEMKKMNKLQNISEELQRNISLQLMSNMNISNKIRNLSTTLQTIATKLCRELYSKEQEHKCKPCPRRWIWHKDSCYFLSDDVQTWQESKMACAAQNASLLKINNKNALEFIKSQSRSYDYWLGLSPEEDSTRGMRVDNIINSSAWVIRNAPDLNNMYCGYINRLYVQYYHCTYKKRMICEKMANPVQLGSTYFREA
# B1: #290 (VHH)
# fusion protein, single chain: PEEPLVVKVEEGDTAVLPCLKGTSDGPTQQLTWSRESPLKPFLKYSLGVPGLGVHVRPDAISVVIRNVSQQMGGFYLCQPGPPSEKAWQPGWTVNVEGSGELFRWNVSDLGGLGCGLKNRSSEGPSSPSGKLMSPKLYVWAKDRPEIWEGEPPCLPPRDSLNQSLSQDLTMAPGSTLWLSCGVPPDSVSRGPLSWTHVHPKGPKSLLSLELKDDRPAREMIVDETGLLLPRATAQDAGKWYCSRGNVTTSYHLEITARPVKAHSDLRTGGWKGGGGSGGGGSGGGGSGGGGSQVQLQESGGGLVQPGGSLRLSCAASGFTFNSYAMTWVRQAPGKGLEWVSDINSGGGSTNYADSVKGRFTISRDNAKNTLYLQMNSLKPEDTAVYYCATELRGSDYYRGPIREYAYWGQGTLVTVSSTSGPGGQGAEQKLISEEDLGAHHHHHHGAS
# notes: also called construct #290; CD19 mutant #2-G4Sx4-anti CLEC12a VHH 1H1-His
# B2: CD19 mutant #2-G4Sx4-anti CLEC12a VHH 2H3-myc-His (VHH)
# chain: PEEPLVVKVEEGDTAVLPCLKGTSDGPTQQLTWSRESPLKPFLKYSLGVPGLGVHVRPDAISVVIRNVSQQMGGFYLCQPGPPSEKAWQPGWTVNVEGSGELFRWNVSDLGGLGCGLKNRSSEGPSSPSGKLMSPKLYVWAKDRPEIWEGEPPCLPPRDSLNQSLSQDLTMAPGSTLWLSCGVPPDSVSRGPLSWTHVHPKGPKSLLSLELKDDRPAREMIVDETGLLLPRATAQDAGKWYCSRGNVTTSYHLEITARPVKAHSDLRTGGWKGGGGSGGGGSGGGGSGGGGSQVQLQESGGGLVQAGGSLRLSCVASGSIRSINVMGWYRQAPGKQRELVAACASDGNTYYADSVKGRFTISRDNAEKTVYLQMNNLKPDDTAVYYCDANSRGNYYSGQGTQVTVSSTSGPGGQGAEQKLISEEDLGAHHHHHHGAS
# notes: CD19 variant-VHH fusion
# B3: #333 (VHH)
# fusion protein, single chain: B2 chain with A306V, G308E, A316V, S319D, I320T, V325L, Q402L
# notes: also called CD19 mutant #2-G4Sx4-anti CLEC12a VHH 1A10-His
# B4: CD19 mutant #2-G4Sx4-anti CLEC12a VHH 1G6-myc-His (VHH)
# chain: PEEPLVVKVEEGDTAVLPCLKGTSDGPTQQLTWSRESPLKPFLKYSLGVPGLGVHVRPDAISVVIRNVSQQMGGFYLCQPGPPSEKAWQPGWTVNVEGSGELFRWNVSDLGGLGCGLKNRSSEGPSSPSGKLMSPKLYVWAKDRPEIWEGEPPCLPPRDSLNQSLSQDLTMAPGSTLWLSCGVPPDSVSRGPLSWTHVHPKGPKSLLSLELKDDRPAREMIVDETGLLLPRATAQDAGKWYCSRGNVTTSYHLEITARPVKAHSDLRTGGWKGGGGSGGGGSGGGGSGGGGSQVQLQQSGGGLVQAGGSLRLSCAASGSIFAINEINLMGWYRQAPGKQRELVAACASDGNTYYADSVKGRFTISRDNAEKTVYLQMNNLKPDDTAVYYCDANSRGNYYSGQGTQVTVSSTSGPGGQGAEQKLISEEDLGAHHHHHHGAS
# notes: CD19 variant-VHH fusion
# B5: #335 (VHH)
# fusion protein, single chain: B4 chain with Q297V, Q298E, Q405L
# notes: also called CD19 mutant #2-G4Sx4-anti CLEC12a VHH 2C8-His
# B6: CD19 mutant #2-G4Sx4-anti CLEC12a VHH 2F5-myc-His (VHH)
# chain: B4 chain with V304A, A306T, R311I
# notes: CD19 variant-VHH fusion
# B7: #334 (VHH)
# fusion protein, single chain: B4 chain with Q298E
# notes: also called CD19 mutant #2-G4Sx4-anti CLEC12a VHH 1B1-His
# B8: CD19 mutant #2-G4Sx4-anti CLEC12a VHH 2F3-myc-His (VHH)
# chain: PEEPLVVKVEEGDTAVLPCLKGTSDGPTQQLTWSRESPLKPFLKYSLGVPGLGVHVRPDAISVVIRNVSQQMGGFYLCQPGPPSEKAWQPGWTVNVEGSGELFRWNVSDLGGLGCGLKNRSSEGPSSPSGKLMSPKLYVWAKDRPEIWEGEPPCLPPRDSLNQSLSQDLTMAPGSTLWLSCGVPPDSVSRGPLSWTHVHPKGPKSLLSLELKDDRPAREMIVDETGLLLPRATAQDAGKWYCSRGNVTTSYHLEITARPVKAHSDLRTGGWKGGGGSGGGGSGGGGSGGGGSQVQLQAFGGGLVQPGGSLRLSCVVSGTMFSGKDVNWLRQAPGKHVEVVATVSSDGGTDYADFVKGRFTISRDDAKNTVNLQMNSLEPEDTANYMCHFLWGRHYWGQGTQVTVSSTSGPGGQGAEQKLISEEDLGAHHHHHHGAS
# notes: CD19 variant-VHH fusion
# B9: anti-CLEC12a VHH 1B12-G4Sx4-CD19 D1+2 C term mutant #2-His (VHH)
# VHH: QVQLQASGGGLVQAGGSLRLSCAASGSIFAINEINLMGWYRQAPGKQRELVAACASDGNTYYADSVKGRFTISRDNAEKTVYLQMNNLKPDDTAVYYCDANSRGNYYSGQGTQVTVSS
# B10: anti-CLEC12a VHH 1B1-G4Sx4-CD19 D1+2 C term mutant #2-His (VHH)
# VHH: B9 VHH with A6E
# B11: #329 (VHH)
# VHH: B9 VHH with A6Q, V12A, A14T, R19I
# notes: also called anti CLEC12a VHH 2F5-G4Sx4-CD19 C-term mutant #2-His
# B12: anti-CLEC12a VHH 1A10-CD19 D1+2 C term mutant #2 (VHH)
# VHH: QVQLQESGGGLVQVGESLRLSCVVSGDTRSINLMGWYRQAPGKQRELVAACASDGNTYYADSVKGRFTISRDNAEKTVYLQMNNLKPDDTAVYYCDANSRGNYYSGQGTLVTVSS
# B13: CD19 ECD N term mutant#1-EGFR Fn3 (designed binder)
# chain: PEEPLVVKVEEGDDAWLRCLKGTSDGPTSQVTWSRESPLKPFLKYSLGVPGLGVHIRPLAIGLVIPNVSQQMGGFYLCQPGPPSEKAWQPGWTVNVEGSGELFRWNVSDLGGLGCGLKNRSSEGPSSPSGKLMSPKLYVWAKDRPEIWEGEPPCLPPRDSLNQSLSQDLTMAPGSTLWLSCGVPPDSVSRGPLSWTHVHPKGPKSLLSLELKDDRPAREMIVDETGLLLPRATAQDAGKYYCHRGNRTISYHLEITARPVSAHTPLRTGGWKGGGGSGGGGSGGGGSGGGGSVSDVPRDLEVVAATPTSLLISWFDYAVTYYRITYGETGGNSPVQEFTVPGWISTATISGLKPGVDYTITVYAVTDNSHWPFRSTPISTNYRTEIDKPPQHHHHHH
# notes: also called construct #227; CD19-Fn3/EGFR
# B14: CD19 ECD N term mutant#3-EGFR Fn3 (designed binder)
# chain: PEEPLVVKVEEGDTAALWCLKGTSDGPTQQLTWSRESPLKPFLKLSLGLPGMGVHMRPGAVSAVISNVSQQMGGFYLCQPGPPSEKAWQPGWTVNVEGSGELFRWNVSDLGGLGCGLKNRSSEGPSSPSGKLMSPKLYVWAKDRPEIWEGEPPCLPPRDSLNQSLSRDMTVAPGSTLWLSCGVPPDSVSRGPLSWTHVHPKGPKSLLSLELKDDRPARDMWVMGTSLILPRATAQDAGKYYCHRGNLTMSFHLEVVARPVKAHSDLRTGGWKGGGGSGGGGSGGGGSGGGGSVSDVPRDLEVVAATPTSLLISWFDYAVTYYRITYGETGGNSPVQEFTVPGWISTATISGLKPGVDYTITVYAVTDNSHWPFRSTPISTNYRTEIDKPPQHHHHHH
# notes: Fusion protein; also called construct #229; CD19-Fn3/EGFR
# B15: CD19 ECD N term mutant#2-EGFR Fn3 (designed binder)
# chain: PEEPLVVKVEEGDTAVLPCLKGTSDGPTQQLTWSRESPLKPFLKYSLGVPGLGVHVRPDAISVVIRNVSQQMGGFYLCQPGPPSEKAWQPGWTVNVEGSGELFRWNVSDLGGLGCGLKNRSSEGPSSPSGKLMSPKLYVWAKDRPEIWEGEPPCLPPRDSLNQSLSQDLTMAPGSTLWLSCGVPPDSVSRGPLSWTHVHPKGPKSLLSLELKDDRPAREMIVDETGLLLPRATAQDAGKWYCSRGNVTTSYHLEITARPVKAHSDLRTGGWKGGGGSGGGGSGGGGSGGGGSVSDVPRDLEVVAATPTSLLISWFDYAVTYYRITYGETGGNSPVQEFTVPGWISTATISGLKPGVDYTITVYAVTDNSHWPFRSTPISTNYRTEIDKPPQHHHHHH
# notes: Fusion protein; also called CD19-Fn3/EGFR
# Biological target: T1, Clec12A
# Experiment: sandwich ELISA: coated with FMC63, construct titrated (x-axis ug/ml), followed by Clec12A-bio, detected by HRP-SA
Binder,C of the 4-P fit (midpoint),EC50
B1,0.037 µg/mL,0.037 µg/mL and 0.796 nM
B2,0.0201 µg/mL,0.0201 µg/mL and 0.432 nM
B3,0.0106 µg/mL,0.0106 µg/mL and 0.228 nM
B4,0.0113 µg/mL,0.0113 µg/mL and 0.243 nM
B5,0.0108 µg/mL,0.0108 µg/mL and 0.232 nM
B6,0.00983 µg/mL,0.0098 µg/mL and 0.21 nM
B7,0.0112 µg/mL,0.0112 µg/mL and 0.241 nM

# Biological target: T1, Clec12A
# Experiment: binding to U937 cells; supernatant
row,Binder,EC50
1,B8,0.173 µg/mL
2,B2,0.224 µg/mL
3,B4,0.157 µg/mL
4,B6,0.151 µg/mL

# Biological target: T1, Clec12A
# Experiment: sandwich ELISA: coated with FMC63, construct titrated (x-axis ug/ml), followed by Clec12A-bio, detected by HRP-SA
# Remark: another data set of the same source
Binder,C of the 4-P fit (midpoint),EC50
B9,0.015 µg/mL,0.015 µg/mL and 0.323 nM
B10,0.00648 µg/mL,0.0065 µg/mL and 0.14 nM
B11,0.0107 µg/mL,0.0107 µg/mL and 0.23 nM
B12,0.00751 µg/mL,0.0075 µg/mL and 0.161 nM

# Biological target: T1, Clec12A
# Experiment: binding to U937 cells; supernatant; MW = 46kDa
row,Binder,EC50
1,B8,3.76 nM
2,B2,4.87 nM
3,B4,3.4 nM
4,B6,3.29 nM

# Biological target: T2, EGFR (UniProt P00533 25-1210, limits assumed)
# T2 construct: whole, on cells; also called EGFR positive cells; EGFR positive H292 cells
# Experiment: binding to EGFR positive cells (data not shown)
row,Binder,binding result
1,B13,binds
2,B14,binds
3,B15,binds
